Numbering of substitutions follows the chain as printed.

The source of these data is patent publication US10801027B2, “Inhibitors of SRSF1 to treat neurodegenerative disorders” (University of Sheffield, priority 2016, dated 2020).

For test [1] the following is noted: MND patients; cited from earlier work.
For test [2], the system named is poly-Gly-Pro and poly-Gly-Ala DPRs. The test is described as follows: Western blot of RAN-translated DPRs in N2A cells. It is filed as cell-based, mouse. The settings on record: G4C2×38 or C4G2×39 constructs, 72 h. As for the experimental part: Neuro-2a (ATCC) cells were cultured in Dulbecco's Modified Eagle Medium (Sigma) supplemented with 10% fetal bovine serum [FBS] (Gibco), 5 U/ml Penstrep (Lonza) and 5 mM sodium pyruvate. Cells were maintained in a […] incubator with 5% CO2. 75,000 Neuro-2a cells were split into each well of 24-well plates and transfected for 72 h with 500 ng pcDNA6.2-GW/EmGFP-Control miR RNAi (ThermoFisher) or pcDNA6.2-GW/EmGFP-mouse SRSF1 miR1+2 RNAi and 200 ng pcDNA 3.1/RAN-G4C2×38-sense or RAN-C4G2×39-antisense using 3 μg PEI/1 μg DNA and one tenth medium volume OptiMEM (ThermoFisher).
HEK cells were transfected for 72 h with 650 ng pcDNA6.2-GW/EmGFP-Control miRNA, pCDNA6.2-GW/EmGFP-human SRSF1 miR1+2 RNAi or LV-EmGFP-human SRSF1 miR1+2 RNAi constructs and 50 ng p3×FLAG/human-SRSF1 using 3.5 μg PEI/ml media and one tenth medium volume of OptiMEM. Neuro-2a cells were split into each well of 24-well plates (75,000 cells/well) and transfected for 72 h with 350 ng pcDNA6.2-GW/EmGFP-Control miR RNAi (ThermoFisher), pcDNA6.2-GW/EmGFP-mouse SRSF1 miR1+2 RNAi, p3×FLAG, p3×FLAG/SRSF1 (11-196), p3×FLAG/SRSF1 (11-196)-m2 or p3×FLAG/SRSF1 (11-196)-m4 and 350 ng pcDNA 3.1/RAN-G4C2×38-sense or RAN-C4G2×39-antisense using 3 μg PEI/1 μg DNA and one tenth medium volume OptiMEM.
Proteins were extracted from HEK or Neuro-2a cells 72 hours after transfection. […] Protein extracts were quantified using Bradford Reagent (BioRAD), resolved by SDS-PAGE, electroblotted onto nitrocellulose membrane and probed using the relevant primary antibody. […] (kindly received from Prof Stuart Pickering Brown) primary antibodies were detected with horseradish peroxidase (HRP)-conjugated rabbit secondary antibody [1:5000 dilution] […] (kindly provided from Prof Dieter Edbauer) primary antibodies were detected using HRP-conjugated mouse secondary antibody [1:5000 dilution] […] For dot blot analysis, 50 μg total protein extracts prepared in ice-cold lysis buffer were loaded onto a nitrocellulose membrane using a microfiltration apparatus (Biorad) and analysed by western immunoblotting as previously described.

Another test has as its target T1, NXF1 (Mus musculus, UniProt Q99JX7).
T1 construct: endogenous in cells; host or cells: Neuro-2a (N2A)
T1 sequence (Q99JX7 1-618): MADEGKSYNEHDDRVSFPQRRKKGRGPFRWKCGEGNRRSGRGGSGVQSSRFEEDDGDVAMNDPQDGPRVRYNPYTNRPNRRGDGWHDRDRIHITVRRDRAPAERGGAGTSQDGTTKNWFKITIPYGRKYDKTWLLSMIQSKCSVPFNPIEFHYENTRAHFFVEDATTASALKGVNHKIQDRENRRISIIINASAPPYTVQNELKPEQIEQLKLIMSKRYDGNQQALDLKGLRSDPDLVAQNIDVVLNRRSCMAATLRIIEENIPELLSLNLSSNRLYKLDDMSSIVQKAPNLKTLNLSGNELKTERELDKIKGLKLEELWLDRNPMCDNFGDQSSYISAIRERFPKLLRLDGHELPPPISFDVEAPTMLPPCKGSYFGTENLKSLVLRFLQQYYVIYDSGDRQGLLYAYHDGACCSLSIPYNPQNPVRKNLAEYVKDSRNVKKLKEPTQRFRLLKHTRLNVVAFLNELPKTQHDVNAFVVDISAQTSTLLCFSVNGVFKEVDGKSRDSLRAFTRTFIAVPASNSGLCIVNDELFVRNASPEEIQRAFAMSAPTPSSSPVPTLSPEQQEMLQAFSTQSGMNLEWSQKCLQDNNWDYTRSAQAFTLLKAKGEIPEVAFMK
Kind of test: Anti-FLAG co-immunoprecipitation of endogenous NXF1 in N2A cells. Type of test: binding. To be noted: FLAG-tagged protein, 48 h. As for the experimental part: Cells were split into 1×10 cm plates/treatment (1.5×10^6 cells/plate) and transfected with 15 μg p3×FLAG, p3×FLAG/SRSF1 (11-196), p3×FLAG/SRSF1 (11-196)-m2 or p3×FLAG/SRSF1(11-196)-m4 using 3 μg PEI/1 μg DNA and one tenth medium volume OptiMEM.
Proteins were extracted from Neuro-2a cells 48 hours after transfection. Cells were briefly washed in ice cold PBS, scraped into 500 μl ice cold lysis buffer, passed through a 21G gauge needle 10 times and left to lyse on ice for 10 minutes. Lysed cells were cleared by centrifugation at maximum speed at 4° C. for five minutes and protein extracts were quantified using Bradford Reagent. 2 mg of total protein in 1 ml lysis buffer was incubated with 30 μl anti-FLAG® M2 affinity resin slurry (Sigma A2220) (which had been blocked overnight with 1% BSA in IP lysis buffer) for 2 hours at 4° C. on a rotating wheel. […] 30 μg total protein and 15 μl captured protein complexes were resolved by SDS-PAGE, electroblotted onto nitrocellulose membrane and probed using FLAG, NXF1 clone 53H8 [1:2000] (Abcam ab50609) and […]-tubulin.

As for `Nc1nc2ccc(OC(F)(F)F)cc2s1` [riluzole], the life extension entry in test [1] is “around 6 months”.

B1: SRSF1-m2: FLAG-tagged SRSF1 11-196 double R117,118A mutant (protein)
chain: AGNNDCRIYVGNLPPDIRTKDIEDVFYKYGAIRDIDLKNRRGGPPFAFVEFEDPRDAEDAVYGRDGYDYDGYRLRVEFPRSGRGTGRGGGGGGGGGAPRGRYGPPSAASENRVVVSGLPPSGSWQDLKDHMREAGDVCYADVYRDGTGVVEFVRKEDMTYAVRKLDNTKFRSHEGETAYIRVKVDG
modifications: left off: small tags and cut ends
notes: FLAG-tagged SRSF1 11-196 double R117,118A mutant
As for B1, the “effect on RAN translation / production of sense and antisense DPRs” value in test [2] was “little effect”. Besides, the “co-immunoprecipitation of endogenous NXF1” value with NXF1 is reported as “specifically immunoprecipitated”.

B2: SRSF1 11-196 wild type: FLAG-tagged SRSF1 amino-acids 11-196 wild type (protein)
chain: B1 chain with A107R, A108R
modifications: left off: small tags and cut ends
notes: FLAG-tagged SRSF1 amino-acids 11-196 wild type
For the molecule B2, the “effect on RAN translation / production of sense and antisense DPRs” value in test [2] is reported as “no”. Further, the “co-immunoprecipitation of endogenous NXF1” value with NXF1 was “specifically immunoprecipitated”.
